{"source": "paper doi:10.1101/2023.07.18.549252", "about": "(bioRxiv, 2023)", "binders": {"B1": {"name": "VHH Z70 mutant 3 (R47K), Gal4 activation domain fusion prey (VHH)", "VHH": "EVQLQASGGVFVQSGGSLRLSCAASGATSTFDGMGWFRQAPGKEKEFVSAISYEQGSYTYYADSVKGRFTISRDNSKNMVYLQMNSLRAEDTATYYCAPAYEGDLYAFDSYGGQGTQVTVSS"}, "B2": {"name": "VHH Z70 mutant 5 (T96S), Gal4 activation domain fusion prey (VHH)", "VHH": "B1 VHH with K45R, T94S"}, "B3": {"name": "VHH Z70 mutant 9 (P101S + G115E), Gal4 activation domain fusion prey (VHH)", "VHH": "B1 VHH with K45R, P99S, G113E"}, "B4": {"name": "VHH Z70 mutant 12 (S23C + G115E), Gal4 activation domain fusion prey (VHH)", "VHH": "B1 VHH with S21C, K45R, G113E"}, "B5": {"name": "VHH Z70 mutant 14, Gal4 activation domain fusion prey (VHH)", "VHH": "B1 VHH with T30I, K45R, E54G, G113E"}, "B6": {"name": "VHH Z70 mutant 15 (R90G + P101S + G114E), Gal4 activation domain fusion prey (VHH)", "VHH": "B1 VHH with K45R, R88G, P99S, G112E"}, "B7": {"name": "VHH Z70 mutant 1 (G115E) (VHH)", "VHH": "B1 VHH with K45R, G113E"}, "B8": {"name": "VHH Z70 mutant 3 (R47K) (VHH)", "VHH": "B1 VHH"}, "B9": {"name": "VHH Z70 mutant 5 (T96S) (VHH)", "VHH": "B1 VHH with K45R, T94S"}, "B10": {"name": "VHH Z70 mutant 9 (P101S + G115E) (VHH)", "VHH": "B1 VHH with K45R, P99S, G113E"}, "B11": {"name": "VHH Z70 mutant 12 (S23C + G115E) (VHH)", "VHH": "B1 VHH with S21C, K45R, G113E"}, "B12": {"name": "VHH Z70 mutant 14 (VHH)", "VHH": "B1 VHH with T30I, K45R, E54G, G113E"}, "B13": {"name": "VHH Z70 mutant 15 (R90G + P101S + G114E) (VHH)", "VHH": "B1 VHH with K45R, R88G, P99S, G112E"}, "B14": {"name": "VHH Z70 mutant 20 (R47K + G115E) (VHH)", "VHH": "B1 VHH with G113E"}, "B15": {"name": "TAMRA-labelled VHH Z70 mutant 3 (R47K) with a terminal cysteine (VHH)", "VHH": "B1 VHH"}, "B16": {"name": "TAMRA-labelled VHH Z70 mutant 20 (double mutation R47K + G115E) with a terminal cysteine (VHH)", "VHH": "B1 VHH with G113E"}}, "note": "Changes are numbered by the printed parent chain. In names and notes the source's numbering stands.", "data": [{"molecular_target": "Tau-LexA (Tau variant 0N4R isoform with a C-terminal LexA fusion) (Homo sapiens, UniProt P10636-6)", "test": "two-hybrid", "values": [{"binder": "B1", "binding result": "binds"}, {"binder": "B2", "binding result": "binds"}, {"binder": "B3", "binding result": "binds"}, {"binder": "B4", "binding result": "binds"}, {"binder": "B5", "binding result": "binds"}, {"binder": "B6", "binding result": "binds"}]}, {"molecular_target": "Biotinylated Tau 2N4R (Homo sapiens, UniProt P10636-8, biotin (NHS-biotin conjugates, 5 molar excess; sites not stated))", "test": "SPR", "units": {"Kd": "µM"}, "values": [{"binder": "B7", "Kd": 0.023}, {"binder": "B8", "binding result": "binds"}, {"binder": "B9", "binding result": "binds"}, {"binder": "B10", "binding result": "binds"}, {"binder": "B11", "binding result": "binds"}, {"binder": "B12", "binding result": "binds"}, {"binder": "B13", "binding result": "binds"}, {"binder": "B14", "binding result": "binds"}]}, {"molecular_target": "Tau (on the Western blot membrane) (Homo sapiens, UniProt P10636)", "test": "far-Western, overlay or dot blot", "values": [{"binder": "B15", "binding result": "binds"}, {"binder": "B16", "binding result": "binds"}]}, {"molecular_target": "Tau 2N4R (recombinant; 15N-labelled for NMR) (Homo sapiens, UniProt P10636-8)", "test": "NMR titration", "values": [{"binder": "B8", "binding result": "binds"}, {"binder": "B9", "binding result": "binds"}, {"binder": "B10", "binding result": "binds"}, {"binder": "B11", "binding result": "binds"}, {"binder": "B12", "binding result": "binds"}, {"binder": "B14", "binding result": "binds"}]}]}
